Results taken from article PMC8556256.

Biological target: Flag-tagged PITX2 R115L (mouse)
Test: co-IP; 293T cells co-transfected with PITX2-Flag (WT or R115L) and NRF2-HA or YAP1-HA; lysis in 50 mM Tris-HCl pH 7.5, 150 mM NaCl, 1% Nonidet P-40, 0.5% sodium deoxycholate; Flag immunoprecipitation at 4 °C overnight, six washes, blot with anti-HA; relative binding capacity = normalized IP-HA intensity / normalized IP-Flag intensity (ImageJ)

Question: “HA-tagged YAP1 (from UniProt P46938 1-488) (natural protein)” was tested. Which reduction of relative binding capacity against WT PITX2 did it give?
Answer: 89.1%

B1: HA-tagged NRF2 (natural protein)
chain: MMDLELPPPGLQSQQDMDLIDILWRQDIDLGVSREVFDFSQRQKDYELEKQKKLEKERQEQLQKEQEKAFFAQFQLDEETGEFLPIQPAQHIQTDTSGSASYSQVAHIPKQDALYFEDCMQLLAETFPFVDDHESLALDIPSHAESSVFTAPHQAQSLNSSLEAAMTDLSSIEQDMEQVWQELFSIPELQCLNTENKQLADTTAVPSPEATLTEMDSNYHFYSSISSLEKEVGNCGPHFLHGFEDSFSSILSTDDASQLTSLDSNPTLNTDFGDEFYSAFIAEPSDGGSMPSSAAISQSLSELLDGTIEGCDLSLCKAFNPKHAEGTMEFNDSDSGISLNTSPSRASPEHSVESSIYGDPPPGFSDSEMEELDSAPGSVKQNGPKAQPAHSPGDTVQPLSPAQGHSAPMRESQCENTTKKEVPVSPGHQKAPFTKDKHSSRLEAHLTRDELRAKALHIPFPVEKIINLPVDDFNEMMSKEQFNEAQLALIRDIRRRGKNKVAAQNCRKRKLENIVELEQDLGHLKDEREKLLREKGENDRNLHLLKRRLSTLYLEVFSMLRDEDGKPYSPSEYSLQQTRDGNVFLVPKSKKPDTKKN
Question: With B1 as the molecule, how does the reduction of relative binding capacity against WT PITX2 read?
Answer: 53.8%
